Measurements as given in paper PMC5794792.

Tests used:
[1] = target: Bovine α-chymotrypsin (bovine); test: complex dissociation followed by regain of protease activity; 5 µM serpin-chymotrypsin complex diluted 200–2000-fold (0–25 nM) into assay buffer with substrate, 25 °C; apparent rate constant k_(diss,app)
[2] = target: Bovine α-chymotrypsin (bovine); test: enzyme inhibition kinetics (progress curves); inhibition of chymotrypsin by several serpin concentrations followed over time at 25 °C; slope of kobs against inhibitor concentration, corrected for non-productive turnover (k'ass); protease assay buffer pH 8.0 with chromogenic substrate

Substance: α1-antitrypsin (from UniProt P01009 25-418) (natural protein)
- koff [1]: 7.5e-06 s⁻¹
- kon [2]: 690000 M⁻¹ s⁻¹
